Assay results reported in article PMC7226325.

Molecular target: recombinant Tepary bean lectin (rTBL-1) (Phaseolus acutifolius (Tepary bean))
Experiment: SEC; ENrich SEC 650 column, calibrated with gel filtration standard; 200 uL of protein at 10 mg/mL; 20 mM MES pH 6.5, 100 mM NaCl

stoichiometry N: 4
Substance: recombinant Tepary bean lectin (rTBL-1) (natural protein)
